Values of other authors, collected in publication PMC11409674, “Raffinocyclicin is a novel plasmid-encoded circular bacteriocin produced by Lactococcus raffinolactis with broad-spectrum activity against many gram-positive food pathogens” (Applied and environmental microbiology, 2024).

Test system: proteases
Set-up: method as in 4 sources, ref 33 = [33]; PMID 21948835; doi:10.1128/AEM.06348-11; 33 Masuda Y Ono H Kitagawa H Ito H Mu F Sawa N Zendo T Sonomoto K Identification and characterization of leucocyclicin Q, a novel cyclic bacteriocin produced by Leuconostoc mesenteroides TK41401 Appl ||| ref 27 = [27]; PMID 21057028; doi:10.1128/AEM.01173-10; 27 Borrero J Brede DA Skaugen M Diep DB Herranz C Nes IF Cintas LM Hernández PE Characterization of garvicin ML, a novel circular bacteriocin produced by Lactococcus garvieae DCC43, isolated from mall ||| ref 30 = [30]; PMID 29177092; doi:10.1099/mgen.0.000134; 30 van Heel AJ Montalban-Lopez M Oliveau Q Kuipers OP Genome-guided identification of novel head-to-tail cyclized antimicrobial peptides, exemplified by the discovery of pumilarin Microb Genom 2017 3 ||| ref 29 = [29]; PMID 18552180; doi:10.1128/AEM.00817-08; 29 Martin-Visscher LA van Belkum MJ Garneau-Tsodikova S Whittal RM Zheng J McMullen LM Vederas JC Isolation and characterization of carnocyclin A, a novel circular bacteriocin produced by Carnobacteri
Settings: cited from earlier work

Row | Substance | sensitivity to proteolytic activity
1 | garvicin ML | resistant
2 | lactocyclicin Q | resistant
3 | leucocyclicin Q | resistant
